Test results published in patent publication US20190300576A1.

Assays:
[1] = molecular target: SUMO-C-CA (HIV-1); assay: BLI, peptide on streptavidin sensors, global fit
[2] = molecular target: SUMO-C-CA (HIV-1); assay: BLI, biotinylated peptide immobilized on streptavidin sensors, SUMO-C-CA in solution
[3] = molecular target: Trypsin from bovine pancreas (bovine) (UniProt P00760); assay: Trypsin inhibition assay
[4] = molecular target: SUMO-C-CA (HIV-1); assay: BLI, C-terminally biotinylated peptide immobilized
[5] = molecular target: SUMO-C-CA (HIV-1); assay: HPSEC affinity selection, 50*7.8mm BIO-SEC-3 column, peptide quantified by LC-MS in the protein fraction

Sequence of Trypsin from bovine pancreas (bovine) (P00760 24-246): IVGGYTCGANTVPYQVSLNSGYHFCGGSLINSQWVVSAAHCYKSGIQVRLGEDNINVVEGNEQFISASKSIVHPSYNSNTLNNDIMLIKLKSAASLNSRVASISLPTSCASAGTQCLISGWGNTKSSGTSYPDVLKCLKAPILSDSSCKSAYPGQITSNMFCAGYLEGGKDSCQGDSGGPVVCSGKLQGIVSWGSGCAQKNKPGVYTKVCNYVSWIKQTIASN

Kd [1] [nM]	Kd [2] [nM]	Kd [3] [nM]	Kd [4] [nM]	Selection yield (%) [5] [%]	Substance
5000	5800	–	–	–	peptide NYAD (37a-M)
–	–	0.93	–	–	EETI-II-diol (59) (from UniProt P12071 1-28) (peptide)
2200	2300	–	2300	–	peptide 37a (biotinylated CAI)
–	–	–	–	0.5	CAI (37) (peptide)
